Reference: the supplement of paper PMC9112550, “Optimization of the antimicrobial peptide Bac7 by deep mutational scanning” (BMC Biology, 2022)

Test system: Escherichia coli TOP10
Test: shrunken log2 fold change of peptide-encoding DNA abundance (4.5 h post-induction vs induction); higher = less antimicrobial activity (less host growth inhibition)
Settings: time post-induction: 4.5 h; library: site-saturation at positions 5, 18, 19, 20
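Note: peptides expressed intracellularly from a pBAD plasmid library in pooled LB shake-flask culture, induced with 0.3% L-arabinose, DNA abundance read by NGS, three biological replicates, DESeq2 with apeglm shrinkage.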

Sequence | shrunken log2 fold change
RRIRHRPPRLPRPRPRPGLGPRP | 0.404
RRIRERPPRLPRPRPRPTFMPRP | -0.157
RRIRKRPPRLPRPRPRPSASPRP | 0.288
RRIRCRPPRLPRPRPRPAHRPRP | 0.392
RRIRIRPPRLPRPRPRPKCEPRP | 0.07
RRIRMRPPRLPRPRPRPSHIPRP | -0.659
RRIRMRPPRLPRPRPRPRQEPRP | 1.13
RRIRDRPPRLPRPRPRPKSNPRP | -0.305
RRIRRRPPRLPRPRPRPPGWPRP | -0.0607
RRIRRRPPRLPRPRPRPQRMPRP | 0.13
RRIRGRPPRLPRPRPRPITIPRP | 0.0958
RRIRSRPPRLPRPRPRPTGHPRP | -0.0852
RRIRKRPPRLPRPRPRPLCLPRP | -0.126
RRIRARPPRLPRPRPRPAAPPRP | 0.99
RRIRDRPPRLPRPRPRPNQQPRP | -0.12
RRIRERPPRLPRPRPRPWGEPRP | -0.279
RRIRNRPPRLPRPRPRPRFTPRP | -0.286
RRIRQRPPRLPRPRPRPWASPRP | -0.017
RRIRWRPPRLPRPRPRPEMPPRP | 0.364
RRIRARPPRLPRPRPRPCQLPRP | -0.0907
RRIRKRPPRLPRPRPRPQHGPRP | 0.205
RRIRCRPPRLPRPRPRPEEFPRP | 0.0238
RRIRVRPPRLPRPRPRPLAFPRP | -0.221

Sequence | shrunken log2 fold change
RRIRDRPPRLPRPRPRPQHMPRP | -0.11
RRIRSRPPRLPRPRPRPISSPRP | -0.0591
RRIRVRPPRLPRPRPRPIVFPRP | 0.0602
RRIRGRPPRLPRPRPRPCLQPRP | 0.264
RRIRIRPPRLPRPRPRPKGDPRP | 0.424
RRIRDRPPRLPRPRPRPNPLPRP | 1.05
RRIRYRPPRLPRPRPRPTECPRP | -0.0134
RRIRLRPPRLPRPRPRPTEHPRP | 0.121
RRIRCRPPRLPRPRPRPNYMPRP | -0.677
RRIRQRPPRLPRPRPRPSHCPRP | 0.0811
RRIRPRPPRLPRPRPRPLTCPRP | -0.191
RRIRFRPPRLPRPRPRPSNYPRP | -0.396
RRIRHRPPRLPRPRPRPLIRPRP | -0.217
RRIRPRPPRLPRPRPRPVVWPRP | 0.535
RRIRIRPPRLPRPRPRPKYYPRP | -0.632
RRIRPRPPRLPRPRPRPCHFPRP | -0.265
RRIRARPPRLPRPRPRPSRKPRP | 0.00605
RRIRCRPPRLPRPRPRPAGQPRP | -0.109
RRIRCRPPRLPRPRPRPDRPPRP | 0.19
RRIRFRPPRLPRPRPRPVNYPRP | 0.184
RRIRMRPPRLPRPRPRPFKYPRP | -0.164
RRIRDRPPRLPRPRPRPRNIPRP | -0.0463
RRIRWRPPRLPRPRPRPWFCPRP | -0.0932

Sequence | shrunken log2 fold change
RRIRNRPPRLPRPRPRPAHSPRP | 0.111
RRIRRRPPRLPRPRPRPYAYPRP | -0.189
RRIRHRPPRLPRPRPRPMTKPRP | 0.0576
RRIRMRPPRLPRPRPRPHKQPRP | 0.0796
RRIRRRPPRLPRPRPRPTVYPRP | -0.135
RRIRVRPPRLPRPRPRPSFEPRP | -0.214
RRIRCRPPRLPRPRPRPPPQPRP | 1.34
RRIRGRPPRLPRPRPRPQNWPRP | 0.0915
RRIRPRPPRLPRPRPRPIHSPRP | -0.0694
RRIRCRPPRLPRPRPRPDRMPRP | -0.139
RRIRCRPPRLPRPRPRPSGRPRP | 0.235
RRIRHRPPRLPRPRPRPEWHPRP | 0.0223
RRIRLRPPRLPRPRPRPHCCPRP | -0.376
RRIRERPPRLPRPRPRPQEAPRP | -0.018
RRIRIRPPRLPRPRPRPHDQPRP | -0.573
RRIRVRPPRLPRPRPRPPFAPRP | 0.583
RRIRDRPPRLPRPRPRPEWSPRP | 0.364
RRIRMRPPRLPRPRPRPYFGPRP | -0.138
RRIRLRPPRLPRPRPRPAAVPRP | 0.376
RRIRHRPPRLPRPRPRPRNIPRP | -0.326
RRIRTRPPRLPRPRPRPDHWPRP | 0.0335
RRIRPRPPRLPRPRPRPRWVPRP | 0.164
RRIRMRPPRLPRPRPRPHPEPRP | 0.414

Sequence | shrunken log2 fold change
RRIRVRPPRLPRPRPRPYVMPRP | -0.619
RRIRWRPPRLPRPRPRPRMYPRP | -0.196
RRIRVRPPRLPRPRPRPETPPRP | 1.14
RRIRARPPRLPRPRPRPIWIPRP | 0.123
RRIRWRPPRLPRPRPRPESFPRP | 0.528
RRIRLRPPRLPRPRPRPWRNPRP | 0.00408
RRIRQRPPRLPRPRPRPHEVPRP | -0.0426
RRIRSRPPRLPRPRPRPIFMPRP | -0.117
RRIRIRPPRLPRPRPRPNHFPRP | -0.694
RRIRWRPPRLPRPRPRPKLPPRP | 0.247
RRIRMRPPRLPRPRPRPYCGPRP | -0.0255
RRIRYRPPRLPRPRPRPPWPPRP | 0.405
RRIRPRPPRLPRPRPRPFEAPRP | -0.105
RRIRHRPPRLPRPRPRPHEHPRP | 0.103
RRIRCRPPRLPRPRPRPITFPRP | -0.167
RRIRARPPRLPRPRPRPRSVPRP | 0.665
RRIRWRPPRLPRPRPRPRNPPRP | 0.113
RRIRDRPPRLPRPRPRPHCSPRP | 0.0218
RRIRIRPPRLPRPRPRPWVLPRP | -0.142
RRIRLRPPRLPRPRPRPIMAPRP | 0.0391
RRIRVRPPRLPRPRPRPRDKPRP | -0.179
RRIRWRPPRLPRPRPRPGVHPRP | 0.135
